Laboratory results from US20090004675A1, “Method of Identifying Compounds for Bacterial Growth Modulation” (priority 2004, published 2009).

Assays:
[1] = target: E. coli DNA polymerase III replicase (Escherichia coli, UniProt P0A988); conditions: primed M13mp18 ssDNA coated with SSB
Description: Assays were performed using primed M13mp18 ssDNA coated with SSB as substrate. Each reaction was 25 μl and contained 72 ng primed M13mp18 ssDNA, 1 μg SSB, 0.1 mM MgCl2, 20 mM TrisHCl (pH 7.5), 0.1 mM EDTA, 5 mM DTT, 40 μg/ml BSA, 4% glycerol, […], 2 mM ATP, 60 μM each of dCTP, dATP, dGTP and 20 μM α^32-P dTTP. Replicases consisted of the following for each E. coli, S. pyogenes, and S. aureus: 50 ng Pol III core (E. coli) or Pol C (S. pyogenes and S. aureus), 200 ng τ, 20 ng δδ′ and 40 ng β. Peptides, when present, were added to the indicated concentration. Reactions were assembled on ice in the absence of the polymerase, then shifted to 37° C. for 3 min before initiating synthesis by addition of the polymerase. Reactions were incubated a further 3 min prior to quenching and quantitation of synthesis.

E. coli β clamp = E. coli β clamp (Escherichia coli, UniProt P0A988); conditions: E. coli β labeled with Oregon Green or rhodamine-labeled peptide; Kd only in FIG. 1A
Source text: The assays corresponding to the data in the Table of FIG. 1A, use E. coli β labeled with an Oregon Green fluorophore. Peptides of various polymerases were titrated into the labeled β, and the Kd values were obtained from the resulting fluorescent intensity changes. All other plots utilize rhodamine-labeled polymerase peptide from E. coli α (FIG. 1A), S. pyogenes Pol C (FIG. 1B), S. aureus Pol C (FIG. 1C). β clamp from the organisms indicated are titrated into the fluorescent peptide.
A rhodamine-labeled 20 mer peptide corresponds to the sequence of the C-terminal 20 residues of E. coli Pol III α subunit. […] A plot of the fluorescence change with beta concentration provides a Kd value for the interaction between these molecules (FIG. 1A).

[2] = test system: S. pyogenes PolC holoenzyme; assay: Replicase DNA synthesis assay on primed M13mp18 ssDNA, with peptides; assay type: biochemical, Streptococcus pyogenes; conditions: primed M13mp18 ssDNA coated with SSB
Description: (§1) Peptides, when present, were added to the indicated concentration.

[3] = target: T1, S. aureus Pol C holoenzyme (Staphylococcus aureus, UniProt P0A024); assay: as above; assay type: biochemical; conditions: primed M13mp18 ssDNA coated with SSB
T1 construct: made in house
T1 sequence (P0A024 1-377): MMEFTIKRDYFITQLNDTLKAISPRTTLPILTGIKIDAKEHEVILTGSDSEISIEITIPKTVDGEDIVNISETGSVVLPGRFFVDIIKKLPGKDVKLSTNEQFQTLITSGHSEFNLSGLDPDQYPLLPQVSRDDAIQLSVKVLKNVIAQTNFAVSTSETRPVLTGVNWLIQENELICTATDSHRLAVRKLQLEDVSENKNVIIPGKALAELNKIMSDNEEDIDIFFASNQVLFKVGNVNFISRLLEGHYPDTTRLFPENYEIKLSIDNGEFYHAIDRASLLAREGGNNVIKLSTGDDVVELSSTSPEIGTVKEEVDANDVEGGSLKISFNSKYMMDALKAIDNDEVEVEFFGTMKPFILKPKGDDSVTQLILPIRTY
Description: as §1

S. pyogenes β = assay: Binding of rhodamine-labeled polymerase C-terminal peptides to β clamp; set-up: species or system Streptococcus pyogenes; conditions: β titrated in
Description: This assay has also been examined using Streptococcus pyogenes β and rhodamine labeled peptides corresponding to C-terminal residues of Streptococcus pyogenes Pol C and E. coli Pol III. […] The C-terminal peptide corresponding to Staphylococcus aureus Pol C was also tested for binding to these β clamps (FIG. 1C).

Sequence of E. coli DNA polymerase III replicase (P0A988 whole entry): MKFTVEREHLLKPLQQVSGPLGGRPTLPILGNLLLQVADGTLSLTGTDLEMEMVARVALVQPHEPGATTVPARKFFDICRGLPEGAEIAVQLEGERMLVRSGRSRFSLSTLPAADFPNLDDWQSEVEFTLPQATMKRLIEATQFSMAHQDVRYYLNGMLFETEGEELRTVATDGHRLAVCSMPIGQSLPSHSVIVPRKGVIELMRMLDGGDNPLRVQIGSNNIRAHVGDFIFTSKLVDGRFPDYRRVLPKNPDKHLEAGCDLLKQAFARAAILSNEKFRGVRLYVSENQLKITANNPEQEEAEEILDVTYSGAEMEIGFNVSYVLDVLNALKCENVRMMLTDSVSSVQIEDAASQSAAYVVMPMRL
Sequence of E. coli β clamp (P0A988 whole entry): as above

Substance	inhibition of DNA synthesis by E. coli DNA polymerase III replicase [1]	binding of peptide to E. coli β clamp (E. coli β clamp)	inhibition of DNA synthesis by S. pyogenes PolC holoenzyme [2]	inhibition of DNA synthesis by S. aureus Pol C holoenzyme [3]	binding of peptide to S. pyogenes β (S. pyogenes β)
S. aureus Pol C peptide: C-terminal peptide of Staphylococcus aureus Pol C; DELGSLPNLPDKAQLSIFDM (SEQ ID NO: 13) (listed as Staphylococcus aureus)	inhibit DNA synthesis	binds	inhibit DNA synthesis	inhibit DNA synthesis	bound
S. pyogenes Pol C peptide: C-terminal residues of Streptococcus pyogenes Pol C; DEMGILGNMPEDNQLSLFDDFF (SEQ ID NO: 15) (Streptococcus pyogenes)	inhibit DNA synthesis	binds	inhibit DNA synthesis	inhibit DNA synthesis	bound
